Experimental findings from PMC5037430, “High throughput cell-based assay for identification of glycolate oxidase inhibitors as a potential treatment for Primary Hyperoxaluria Type 1” (Scientific Reports, 2016) are described below.

Substrate in this data set: O=C(O)CO
In words: purified protein. To be noted: FMN.

B1: glycolate oxidase (GO); hydroxyacid oxidase 1 (HAO1) (Homo sapiens) (protein)
chain: MLPRLICINDYEQHAKSVLPKSIYDYYRSGANDEETLADNIAAFSRWKLYPRMLRNVAETDLSTSVLGQRVSMPICVGATAMQRMAHVDGELATVRACQSLGTGMMLSSWATSSIEEVAEAGPEALRWLQLYIYKDREVTKKLVRQAEKMGYKAIFVTVDTPYLGNRLDDVRNRFKLPPQLRMKNFETSTLSFSPEENFGDDSGLAAYVAKAIDPSISWEDIKWLRRLTSLPIVAKGILRGDDAREAVKHGLNGILVSNHGARQLDGVPATIDVLPEIVEAVEGKVEVFLDGGVRKGTDVLKALALGAKAVFVGRPIVWGLAFQGEKGVQDVLEILKEEFRLAMALSGCQNVKVIDKTLVRKNPLAVSKI
Consider B1, for which the Michaelis-Menten constant (Km) (usually the concentration of substrate that gives half-maximal velocity) was 74.5 µM.
